According to patent US20220089723A1 (UNIVERSITY HEALTH NETWORK, published 2022):

Biological target: T1, Human LILRB3 (human, UniProt O75022 24-631)
T1 construct: whole, on cells; Endogenous receptor on primary human PBMCs and whole blood cells, not a recombinant construct; also called CD85A; ILT5
Assay: flow cytometry; human PBMCs and fresh whole blood stained with 3A3 and gated on cell subsets
Procedure: LILRB3 surface expression was measured on various hematopoietic subsets in the form of two-dimensional flow cytometry (FCM) representations called quantile contour plots (probability plots). Peripheral blood mononuclear cells (PBMCs) from a healthy human donor were stained with the LILRB3 3A3 antibody as well as antibodies specific for the indicated cell subset. FIG. 1A plots depict LILRB3 expression by gated CD3+CD4+T cells, CD3+CD8+ T cells or CD11b+ monocytes. In FIG. 1B, fresh whole blood from a healthy human donor was stained as in FIG. 1A. Plots depict LILRB3 expression by gated CD3+CD4+ T cells, CD3+CD8+ T cells, CD11b+ monocytes or CD11b+ granulocytes. Percentages of gated cells and of LILRB3+ cells within the gated population are depicted inside the plots (first and second numbers, respectively). […] Specificity of the LILRB3 staining was determined by staining all of the above cell subsets with an IgG1 isotype control antibody. Data are representative of several independent experiments utilizing different human blood samples.

T1 sequence (O75022 24-631): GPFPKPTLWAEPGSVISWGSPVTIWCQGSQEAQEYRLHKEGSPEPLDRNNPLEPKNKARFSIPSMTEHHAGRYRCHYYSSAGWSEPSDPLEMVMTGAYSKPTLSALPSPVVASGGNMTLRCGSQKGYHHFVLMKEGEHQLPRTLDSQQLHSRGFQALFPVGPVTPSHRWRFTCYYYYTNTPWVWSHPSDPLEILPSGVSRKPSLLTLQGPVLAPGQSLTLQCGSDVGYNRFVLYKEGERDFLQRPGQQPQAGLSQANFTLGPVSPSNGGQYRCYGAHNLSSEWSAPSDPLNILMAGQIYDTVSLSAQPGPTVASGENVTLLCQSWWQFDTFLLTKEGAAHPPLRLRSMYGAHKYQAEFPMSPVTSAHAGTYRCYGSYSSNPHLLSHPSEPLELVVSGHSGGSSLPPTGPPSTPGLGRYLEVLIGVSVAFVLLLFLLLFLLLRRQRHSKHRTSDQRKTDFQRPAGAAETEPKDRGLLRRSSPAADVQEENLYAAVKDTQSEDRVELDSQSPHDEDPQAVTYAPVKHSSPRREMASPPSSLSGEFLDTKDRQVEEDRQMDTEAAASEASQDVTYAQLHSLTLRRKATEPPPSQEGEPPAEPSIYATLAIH

binding result: binds
B1: LILRB3 3A3 antibody (antibody, V domains shown)
VH: QVQLQQSRTELMKPGASVKLSCKATGYTFTGYWIEWVKQRPGHGLEWIGEILPGSTNINYNERFKGKATITADTSSNTAYMQLSSLTTEDSAIYYCARWASVVVGDYWGQGATLTVSS
VL: QIVLTQSPAIMSASLGERVTMTCTASSSVSSSYLHWYQQKPGSSPKLWIYSTSNLASGVPARFSGSGSGTSYSLTISSMEAEDAATYYCHQYHRSPPTFGGGTKLEIKR
notes: the entries also seem to hold an N-terminal leader and part of the constant region
